From the DeepSol protein solubility set

Experiment: soluble on expression in E. coli; label from the status in PepcDB or PDB records

Sequence	soluble on expression in E. coli
MIRLQKFKQLTVWVMLGLLTSWIVSCSTDNVGTISKPVTSEVTKIEFWTMQLQPQFTNYFQSLITSFESQNPSIKVKWVDVPWSAMENKILTAVSAKTPPDVVNLNPDFASQLAGRNAWLDLDEKVPSEVSSSYLPNIWQASTLNGKTFGIPWYLTTRLTIYNTDLLKQAGITKPPATYTELAQEAQQIKDKTGKYAFFATFVPQDSGEVLESFVQMGVTLVNAEGKAAFNSPQGKAAFQYWVYLYKKGLLPKESLTQGHRHAIDLYQSGETAFLASGPEFLETISNNAPKISQASAIAPQITGDTGKKNVAVMNIVIPRASKQPDAAVKFALFVTNDENQLAFAKAANVLPSTVTALADSYFKEVPATATIAEKGRIISAQQMQTAEVLTPKMKDFKFLQKAIYENLQAAMLGQKTVDKALEDAAQQWNNR	not soluble
MGSDKIHHHHHHMNKQTEHDTREHLLATGEQLCMQRGFTGMGLSELLKTAQVPKGSFYHYFRSKEAFGVAMLERHYACYHQRLTAHFTSGPGNHRDRLLAWYQETLKQFCQQGAISGCLTVKLSAEVCDLSEDMRSTMDKGAQEIMALLARALEDGRNSHCLHFTGQPLPQAQVLYALWLGANLQAKISRSAAPLENALAHVKTIIATPEQ	not soluble
MSLTHSTMHPYISLLDNEIYTHQGKEVITNMYNIIEKNLTLNLIANNVQYHPNQKTISFTHPSITIFNNKNIAIWYITCNQAQLYHQKKTLNLHGQVFINQIVKKICTQSIITNQLLIDLNNQSIISNNKTIIHGHYFYSIGSCMNINLHTQTTTLFGKIYTQYEIQNMEGHHHHHH	not soluble
MRKDETSNTSPDISAAQPASALRYHLRPPRRNDGAAIHQLVSECPPLDLNSLYAYLLLCEHHAHTCVVAESPGGRIDGFVSAYLLPTRPDVLFVWQVAVHSRARGHRLGRAMLGHILERQECRHVRHLETTVGPDNQASRRTFAGLAGERGAHVSEQPFFDRQAFGGADHDDEMLLRIGPFTHPPH	not soluble
MNSNMVFARVNEADVTEAILDGFYSSLKKHLRSDVIVVGAGPAGLTAAWRLAEAGARVLIVEQNNYLGGGLWLGGYFMNPVTIRAPAQRILDELEVPYEAVKPGLYRTKGPLLAAKLAARALEAGAEVLNLTMLDDVIVENSRVAGVVVNWSPVQGLPRQITCVDPVGLRAEYVVDATGHDAVVTRKLAERGMVEASKLGPMWVERSEDLVVEKTGEVYPGLVVAGIAVAEVYGLPRMGPTFGAMLLSGEKAAALIGEKLGLKVKVAAAPASQA	soluble
MSLNGITKYVEKLTFFNIQSGKQVEFNRDEKVILSNVPFIQQLPELDRGCEVTSLAMMLQYAGITVDKMKLANEIKKVDFMNDGVRGNPNEGFVGNIYTFSESGYGVYHGPLFQLAKKYLPNKAVDLTGKSIEELYKSVKAGQPVVIITNATFAPLDEDEFTTWETNNGDVSITYNEHCVVLIGYDQESVYIRDPLKDSLDVKVPREKFEQAWVQMGSQAISYVKRSKEGHHHHHH	soluble
MRRIILIFSLLTLSLMAFGEEIKVDRSVEESITKDYDQDGVYSSYEKALRRAQESVYVKLPEKRGYWYTILDRVKAEEEELMPEEINRMRRR	not soluble
MDINGGGATLPQALYQTSGVLTAGFAQYIGVGSGNGKAAFLNNDYTKFQAGVTNKNVHWAGSDSKLSATELSTYASAKQPTWGKLIQVPSVGTSVAIPFNKSGSAAVNLSVQELCGVFSGRINTWDGISGSGRTGPIVVVYRSESSGTTELFTRFLNAKCNAETGNFAVTTTFGTSFSGGLPAGAVAATGSQGVMTALAAGDGRITYMSPDFAAPTLAGLDDATKVARVGKNVATNTQGVSPAAANVSAAIGAVPVPAAADRSNPDAWVPVFGPDNTAGVQPYPTSGYPILGFTNLIFSQCYADATQTTQVRDFFTKHYGASNNNDAAITANAFVPLPTAWKATVRASFLTASNALSIGNTNVCNGIGRPLLEAAHHHHHH	soluble
SASSDLEQLCSHVNEKIGNIKKTLSLRNCGQEPTLKTVLNKIGDEIIVINELLNKLELEIQYQEQTNNSLKELCESLEEDYKDIEHLKENVPSHLPQVTVTQSCVKGSDLDPEEPIKVEEPEPVKKPPKEQRSIKEMPFITCDEFNGVPSYMKSRLTYNQINDVIKEINKAVISKYKILHQPKKSMNSVTRNLYHRFIDEETKDTKGRYFIVEADIKEFTTLKADKKFHVLLNILRHCRRLSEVRGGGLTRYVIT	soluble
MKGYGEMAKNNPTRITAEPGKQEIIITREFDAPRELVFKAFTDPDLYTQWIGPRGFTTALKIFEPKNGGSWQYIQKDPEGNEYAFHGVNHDVTEPERIISTFEFEGLPEKGHVILDTARFEALPGDRTKLTSHSVFQTIEDRDGMLQSGMEEGINDSYERLDELLEKMKKLEHHHHHH	soluble
MSAIWLSGAQAFCPAPASLPVAHVQRVVDGDTLRLTDGRNVRMIGLNTPETGKKGRSAEPFAEAAKKRLQALVDKSGGQISLRVGQQGKDHYGRTLANVYGRNGDNLEAQLLSEGLGYLVAVAPNVALVDCQQSAEREARQARRGVWRNSQVQPSDKLRKGGFAVVSGKVRSVQRNRGGIWIELHGSVVLRVAPDQAFRFDMAALERLKGRQIETRGWVIDRSGRGGLKAGQSRWMIALSHPAMLSLLEHHHHHH	not soluble
MGSDKIHHHHHHMILYFSGTGNSRYVARKIAQELNDELISLNQLIKDEKTDELISADKPFIFVCPTYAWRLPIVVTDFIKETKFLGSNRVYFVMTCGGDTAKSINYIQKLCKYKEWQLKGMAEIKMPENYIALFSTTDKETSKQMIKEADKQIYRIISDIRNENEFETITPSGLGGTIKSGIINTVFYKTIISAKGFHYTDKCIGCGKCVELCPLNNINLKNKKPVWKNNCTHCMACICGCPTEAIEYKNKTQNRERYYLE	not soluble
SNAMPVRVIVDSSACLPTHVAEDLDITVINLHVMNNGEERSTSGLSSLELAASYARQLERGGDDGVLALHISKELSSTWSAAVTAAAVFDDDSVRVVDTSSLGMAVGAAAMAAARMAKDGASLQECYDIAVDTLKRSETWIYLHRIDEIWKSGRISTATAMVSTALATRPIMRFNGGRMEIAAKTRTQSKAFAKLVELAQIRADGEPVFIAIGQNEAREAAKQLEELLRNALPEGSSFMSVDIDPTLAVHSGPGAVSVSAVFANQAPELSTGKAGAK	soluble
MGDIMLIILTGLPGVGKSTFSKNLAKILSKNNIDVIVLGSDLIRESFPVWKEKYEEFIKKSTYRLIDSALKNYWVIVDDTNYYNSMRRDLINIAKKYNKNYAIIYLKASLDVLIRRNIERGEKIPNEVIKKMYEKFDEPGKKYKWDEPFLIIDTTKDIDFNEIAKKLIEKSKEIPKFYVLEENKNKNNNISDKIDKETRKIVSEYIKSKKLDKDKIKEVVELRKEFLKKIKKMEEVDADRVLKEFKDLLNSYLEHHHHHH	soluble
EMVLLPAPQIPLIMKIMKNHTPTWLPGVPTLYEKIVAEATAKGVEIKGIRNSFSGASTLPVRTVEDWENLTGGLLVEGYGLTETSPVLCGNPMNGNRRPGYIGVPFPDTEIRIANPDNLDETMPDGEAGEVLARGPQIFQGYLNKPEATAATFHGDWFRTGDMGVMEEDGFIRLVSRIKEIIITGGFNVYPAEVEEALIAHPDVDDAAVVGRPRKDGSEDVVACIVLKDGAALDPEGLKTHCRKLLTRYKVPRTFYHFEALNKDQLGKVRRREVQQTLLERLGEK	not soluble
MGHHHHHHSHMEKSAPSIILNHWCVTWQGHHFLCRNLSNIKILNRRNGYTTLDLPLTLGDLTQYRLAHGLSENLMALSPYSWTIPFLVSSSETPGIELLPKVINDFGTPLSLAIKTNLPSIPAHQLLFYIIFLRPSPLTSMSCYARPLSLASTPSTNGLCQSVSVLDNKPGLLITTPLHRDPASGKYTSNVQSPTTFNLFRVLYIKLSGEEGMVSQKVKHLTIDKDSLQEGFLQLCLNMCGVSYETLQCEILLELVQGPTNFIFPAAFPPPVSLPHRNCIELTCDTERCLKPGDVMKLKHRLLYELGQRGDTPQNAFLIVGAHSPETVWISPSLWLPGQPLYINIINLSHKPLLLSRHSILALAIPISYTRAPASAHEATDTTICYSGNSRVLTCGAAHVLEAHFKHPPITSRAITDGGESPMEWQTL	not soluble
LFKPNYHFFPITGWMNDPNGLIFWKGKYHMFYQYNPRKPEWGNICWGHAVSDDLVHWRHLPVALYPDDETHGVFSGSAVEKDGKMFLVYTYYRDPTHNKGEKETQCVVMSENGLDFVKYDGNPVISKPPEEGTHAFRDPKVNRSNGEWRMVLGSGKDEKIGRVLLYTSDDLFHWKYEGAIFEDETTKEIDCPDLVRIGEKDILIYSITSTNSVLFSMGELKEGKLNVEKRGLLDHGTDFYAAQTFFGTDRVVVIGWLQSWLRTGLYPTKREGWNGVMSLPRELYVENNELKVKPVDELLALRKRKVFETAKSGTFLLDVKENSYEIVCEFSGEIELRMGNESEEVVITKSRDELIVDTTRSGVSGGEVRKSTVEDEATNRIRAFLDSCSVEFFFNDSIAFSFRIHPENVYNILSVKSNQVKLEVFELENIWL	soluble
GPGSMTNQSDAIFPNILWAQRAELVLITIPLQDATNVVVEIKEGRVLHFEAEAGGEKYRCDVELFREVVSEESRHAAQPRQIDIQLRKKAPLTESGEEEFAQSRSWLRLTRDKSKNSHIQVDWSRWRDEDEDEDETGGLGMDYNDLMSRMMTQKGLGEDDCMDCGNHTDEDGVGPGADKANHSDSDDYDDLPPLEP	soluble
GPLGSEVMGPVEAAPEYRVIVDANNLTVEIENELNIIHKFIRDKYSKRFPELESLVPNALDYIRTVKELGNSLDKCKNNENLQQILTNATIMVVSVTASTTQGQQLSEEELERLEEACDMALELNASKHRIYEYVESRMSFIAPNLSIIIGASTAAKIMGVAGGLTNLSKMPACNIMLLGAQRKTLSGFSSTSVLPHTGYIYHSDIVQSLPPDLRRKAARLVAAKCTLAARVDSFHESTEGKVGYELKDEIERKFDKWQE	soluble
MLTLAEKLLLIGLNDETGKVHYQASTALPYGLAGAVLADLMLLGKVELQGKNIVVVDPKPVGQPIFDKALHIINKTPRKRNAKYWVQRLKRDLKTLRQDVLTLLIEQGILKEEKRKILGLFETRTYPAVDGEMEEQVKEKLRVLVLQPTEIEENKELAQERTLVLLSLVNACDLLRQVFDRQEARVVKKQVKHLTKDVPVSKAVKEMVDAINASVVLAITSAAVVTSSSSSSNLEHHHHHH	soluble
SASGYQFGSVDQVEGGSVQYTRKYLGTGNLNDLYVGIGATPFKNFSIGANASSLFGRFTHSRQVIFSTEAPYNPVHLSTLYLKAAKFDFGMQYHLLLKSDRSLVIGAVYSPRVKMHSELTQIKNQVQNGVVVESETQEYIKGMDYYTLPHTLGIGFSYEKKDKLLLGADVQYSKWKGEKFYKSDCKFQDRIRVSLGGEIIPDINAVGMWPKVRYRFGLHGENSYLKVPTKGGV	not soluble
MSLGSRKKFGATYMTTNNRFYEIINDEIRSVVESNGDILVTRDAALDKNKQMQQIYEFIKLKVKAIFINPVDWKQIKPALIAAKNAGIPVIVVDTPVYDDKLVACTVISDNYDAGVQCAKYLMKSKSKANIMLIEHSKAKSGIDRIKGFVDTIGASKQYKIVAAGDSEGQLDKTMSLVDDLIKKHTNVDAIMALNDPSALGALAALKENGLLGKVMVFGVDGSPEAKTMIHDGFMTATSAQFPNKIGHIAAEKAYDILKGKRLKRDVIVPISLISKENLLKYEISGWKEGHHHHHH	soluble
MGRKIVFFDIDGTLLDEQKQLPLSTIEAVRRLKQSGVYVAIATGRAPFMFEHVRKQLGIDSFVSFNGQYVVFEGNVLYKQPLRREKVRALTEEAHKNGHPLVFMDAEKMRASIGDHPHIHVSMASLKFAHPPVDPLYYENKDIYQALLFCRAEEEEPYVRNYPEFRFVRWHDVSTDVLPAGGSKAEGIRMMIEKLGIDKKDVYAFGDGLNDIEMLSFVGTGVAMGNAHEEVKRVADFVTKPVDKEGIWYGLKQLQLIR	soluble
